Substitutions are numbered along the chain they refer to. In names and notes the source's numbering stands. Where two headings read alike, the source gives them in different places. Blank lines part the entries; values can stand above or below the binder they belong to.
Legend:
[1] = target: T1, human TREM2 expressed on cells (human, UniProt Q9NZC2 19-230); assay: FACS, hTREM2 BW cells
T1 construct: BW5147.G.1.4 cells stably expressing human TREM2 together with Dap12, or endogenous TREM2 of primary human myeloid cells; also called huT2 BW; hTREM2 expressing cell line
T1 sequence: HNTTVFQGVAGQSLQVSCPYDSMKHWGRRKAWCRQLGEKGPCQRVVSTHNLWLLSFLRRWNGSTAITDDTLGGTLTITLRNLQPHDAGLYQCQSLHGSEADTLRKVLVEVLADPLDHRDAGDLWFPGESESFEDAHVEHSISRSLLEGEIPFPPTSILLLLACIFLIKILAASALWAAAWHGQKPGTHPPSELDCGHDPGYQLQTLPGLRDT

[2] = target: T2, human TREM2/DAP12 fusion protein (human, UniProt O43914 41-113, limits assumed); assay: cell-based or functional assay
[3] = target: T2, human TREM2/DAP12 fusion protein; assay: cell-based or functional assay; remark: listed apart in the source
[4] = target: T1, human TREM2 expressed on cells; assay: cell-based or functional assay
[5] = target: T3, human TREM2 Fc fusion (entire TREM2 ECD; only one Fc arm fused to TREM2) (human, UniProt Q9NZC2 19-174); assay: BLI, IgG, avid
T3 construct: also called huTREM2-Fc; recombinant hTREM2
T3 sequence: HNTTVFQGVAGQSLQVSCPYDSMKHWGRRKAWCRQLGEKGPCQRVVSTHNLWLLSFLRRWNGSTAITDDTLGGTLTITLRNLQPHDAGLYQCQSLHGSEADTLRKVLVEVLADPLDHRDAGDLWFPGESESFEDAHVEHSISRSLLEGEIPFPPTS
Summary of the method: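 Avid format: AHQ-loaded IgGs exposed to 100 nM human or cyno TREM2-Fc antigen, 3 min association, 3 min dissociation in buffer. Monovalent format: human TREM2-Fc loaded on AHQ sensors, exposed to 100 nM Fab. Kinetics fit to 1:1 model, run at 25° C.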

[6] = target: T1, human TREM2 expressed on cells; assay: FACS, hTREM2 BW cells; remark: listed apart in the source
[7] = target: T1, human TREM2 expressed on cells; assay: FACS, hTREM2 BW cells; remark: listed apart in the source
Summary of the method: (§1)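 Cells were BW5147.G.1.4 stably expressing human TREM2 with Dap12, or human monocyte-derived dendritic cells differentiated 6 days with GM-CSF and IL-4. Antibodies bound 1 h on ice in PBS+2% FBS, then PE anti-human secondary 30 min on ice; flow cytometry read-out as mean fluorescence intensity.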

[8] = target: T4, cynomolgus monkey TREM2 Fc fusion (entire TREM2 ECD; only one Fc arm fused to TREM2) (cynomolgus monkey, UniProt Q9NZC2 19-174 (human entry)); assay: BLI, Fab, monovalent
T4 construct: also called cyno TREM2-Fc
T4 chain: T3 sequence with A10E, W60R, L89F, F125V

[9] = target: T2, human TREM2/DAP12 fusion protein; assay: cell-based or functional assay; remark: listed apart in the source
[10] = target: T2, human TREM2/DAP12 fusion protein; assay: cell-based or functional assay; remark: listed apart in the source
[11] = target: T1, human TREM2 expressed on cells; assay: cell-based or functional assay; remark: listed apart in the source
[12] = target: T2, human TREM2/DAP12 fusion protein; assay: cell-based or functional assay; remark: listed apart in the source
[13] = target: T2, human TREM2/DAP12 fusion protein; assay: cell-based or functional assay; remark: listed apart in the source
[14] = target: T1, human TREM2 expressed on cells; assay: FACS, hTREM2 expressing cell line
[15] = target: T1, human TREM2 expressed on cells; assay: FACS, human DCs
Summary of the method: as §1

[16] = target: T3, human TREM2 Fc fusion (entire TREM2 …); assay: BLI, Fab, monovalent
[17] = target: T2, human TREM2/DAP12 fusion protein; assay: cell-based or functional assay; remark: listed apart in the source
[18] = target: T1, human TREM2 expressed on cells; assay: cell-based or functional assay; remark: listed apart in the source
[19] = target: T3, human TREM2 Fc fusion (entire TREM2 …); assay: BLI

B2: AL2p-3 (antibody, V domains shown)
VH: QVQLVQSGAEVKKPGSSVKVSCKASGYAFSSSWMNWVRQAPGQGLEWMGRIYPGEGDTNYAQKFQGRVTITADESTSTAYMELSSLRSEDTAVYYCARLLRNQPGESYAMDYWGQGTLVTVSS
VL: DVVMTQTPLSLSVTPGQPASISCRSSQSLVHSNGYTYLHWYLQKPGQSPQLLIYKVSNRFSGVPDRFSGSGSGTDFTLKISRVEAEDVGVYYCSQSTRVPYTFGQGTKLEIK
notes: AL2p-h50 variant; Fab and IgG formats under one id
Kd [5]: 1.19 nM | Kd [6]: 2.3 nM | Kd [7]: 2.3 nM | Kd [8]: 4580 nM | luciferase activation, soluble IgG, EC50 [9]: 50 nM | Luciferase activation plate bound 33 nM IgG, FOC [10]: 6.03 FOC | Luciferase activation soluble 10 nM IgG, FOC [10]: 1.29 FOC | Survival huDCs plate bound IgG, AUC [11]: 363000 AUC

B3: AL2p (parental mouse anti-TREM2 antibody) (antibody, V domains shown)
VH: QVQLQQSGPELVKPGASLKISCKASGYAFSSSWMNWVKQRPGKGLEWIGRIYPGDGDTNYNGEFRVRATLTADTSSTTAYMQLSSLTSEDSAVYFCARLLRNQPGESYAMDYWGQGASVTVSS
VL: B2 VL with S12P, T14S, P15L, Q17D, P18Q, Q50K, E86D, V88L, Y92F, Q105G
notes: Parental mouse antibody; Fab and IgG formats under one id; also called 9F5; 9F5a
Reporter assay soluble IgG (EC50, nM) [12]: 19 nM | luciferase activation, soluble IgG, EC50 [13]: 19.3 nM | Kd [14]: 3.04 nM

B6: AL2p-6 (antibody, V domains shown)
VH: B2 VH with E55D
VL: B2 VL with G34W
notes: as for B2
Kd [5]: 1.06 nM | Kd [6]: 4.2 nM | Kd [7]: 4.2 nM | Kd [16]: 259 nM | Kd [8]: 1150 nM | luciferase activation, soluble IgG, EC50 [9]: 38.6 nM | Luciferase activation plate bound 33 nM IgG, FOC [10]: 5.39 FOC | Luciferase activation soluble 10 nM IgG, FOC [10]: 1.2 FOC | Survival huDCs plate bound IgG, AUC [11]: 547000 AUC

B8: AL2p-5 (antibody, V domains shown)
VH: B2 VH with E55D
VL: B2 VL with G34R
notes: AL2p-h50 variant; Fab and IgG formats under one id; also called AL2-5
Kd [6]: 2 nM | Kd [7]: 2 nM | Kd [16]: 99.2 nM | Kd [8]: 4630 nM | luciferase activation, soluble IgG, EC50 [9]: 38.1 nM | Luciferase activation plate bound 33 nM IgG, FOC [10]: 9.99 FOC | Luciferase activation soluble 10 nM IgG, FOC [10]: 1.27 FOC | Survival huDCs plate bound IgG, AUC [11]: 710000 AUC

Further lines, with some results ahead:

Bmax (MFI) [1]: 140000 MFI | Kd [1]: 0.36 nM | plate bound signal activation, fold over AL2p [2]: ~10 fold over AL2p | Plate bound IgG, fold over unstimulated control (25 nM IgG) [3]: 12.9 fold | Soluble IgG, EC50 [3]: 2.99 nM | Soluble IgG, fold over control IgG (17 nM IgG) [3]: 12.1 fold
B1: AL2p-58 huIgG1 PSEG (antibody)
heavy: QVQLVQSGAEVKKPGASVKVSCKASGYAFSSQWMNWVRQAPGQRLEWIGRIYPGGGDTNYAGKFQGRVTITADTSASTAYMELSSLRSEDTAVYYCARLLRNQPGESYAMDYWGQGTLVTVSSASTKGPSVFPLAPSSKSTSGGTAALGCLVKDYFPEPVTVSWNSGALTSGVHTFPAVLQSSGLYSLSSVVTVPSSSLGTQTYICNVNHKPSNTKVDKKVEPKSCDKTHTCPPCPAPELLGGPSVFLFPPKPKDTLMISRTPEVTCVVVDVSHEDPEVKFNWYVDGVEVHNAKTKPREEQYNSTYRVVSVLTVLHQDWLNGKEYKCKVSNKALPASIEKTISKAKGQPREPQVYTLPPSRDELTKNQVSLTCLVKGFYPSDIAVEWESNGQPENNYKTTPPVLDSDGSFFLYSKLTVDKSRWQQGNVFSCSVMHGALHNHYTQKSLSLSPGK
light: DVVMTQSPDSLAVSLGERATINCRSSQSLVHSNRYTYLHWYQQKPGQSPKLLIYKVSNRFSGVPDRFSGSGSGTDFTLKISRVEAEDVGVYYCSQSTRVPYTFGQGTKLEIKRTVAAPSVFIFPPSDEQLKSGTASVVCLLNNFYPREAKVQWKVDNALQSGNSQESVTEQDSKDSTYSLSSTLTLSKADYEKHKVYACEVTHQGLSSPVTKSFNRGEC
notes: IgG1 with P331S and E430G; also called AL2p-58 PSEG
EC50 viability, dendritic cells D558 [4]: 0.206 nM | EC50 viability, dendritic cells D559 [4]: 0.276 nM | EC50 viability, dendritic cells D560 [4]: 0.206 nM | EC50 viability, macrophages D558 [4]: 0.001 nM | EC50 viability, macrophages D559 [4]: 0.322 nM | EC50 viability, macrophages D560 [4]: 0.426 nM

Reporter assay plate bound IgG (EC50, nM) [12]: 10.1 nM | Reporter assay soluble IgG (EC50, nM) [12]: 11.4 nM | MFI [15]: 288 MFI | luciferase activation, plate bound IgG, EC50 [13]: 10.1 nM | luciferase activation, soluble IgG, EC50 [13]: 1.14 nM | Kd [5]: 0.317 nM | Kd [14]: 0.56 nM | Kd [6]: 1.23 nM | Kd [7]: 1 nM | Kd [16]: 4.03 nM | Kd [8]: 3.44 nM | BW Luc assay plate bound 7.3 nM IgG, FOC [17]: 7.49 FOC | BW Luc assay soluble 7.3 nM IgG, FOC [17]: 4.48 FOC | luciferase activation, soluble IgG, EC50 [9]: 6.92 nM | Luciferase activation plate bound 33 nM IgG, FOC [10]: 28.2 FOC | Luciferase activation soluble 10 nM IgG, FOC [10]: 2.83 FOC
B4: AL2p-31 (antibody, V domains shown)
VH: B2 VH with S32Q, E55G, Q62R
VL: B2 VL with D1G, F60R
notes: Fab and IgG formats under one id
DC viability (AUC) [18]: 860000 AUC | Mac viability (AUC) [18]: 83700 AUC | Survival huDCs plate bound IgG, AUC [11]: 1.21e+06 AUC

Reporter assay plate bound IgG (EC50, nM) [12]: 36.1 nM | Reporter assay soluble IgG (EC50, nM) [12]: 14 nM | luciferase activation, plate bound IgG, EC50 [13]: 36 nM | luciferase activation, soluble IgG, EC50 [13]: 14 nM | Kd [14]: 0.51 nM | Kd [7]: 0.51 nM | fold improvement in affinity (KD) vs AL2p [19]: ~10 fold | Kd [16]: 13.3 nM | Kd [8]: 12.4 nM
B5: AL2p-58 (antibody, V domains shown)
VH: B2 VH with S16A, S32Q, G44R, M48I, E55G, Q62G, E74T, T76A
VL: DVVMTQSPDSLAVSLGERATINCRSSQSLVHSNRYTYLHWYQQKPGQSPKLLIYKVSNRFSGVPDRFSGSGSGTDFTLKISRVEAEDVGVYYCSQSTRVPYTFGQGTKLEIK
notes: Fab and IgG formats under one id (explicit huIgG1 is m95, PSEG is m96)

Reporter assay plate bound IgG (EC50, nM) [12]: 206 nM | Reporter assay soluble IgG (EC50, nM) [12]: 105 nM | MFI [15]: 372 MFI | luciferase activation, plate bound IgG, EC50 [13]: 206 nM | luciferase activation, soluble IgG, EC50 [13]: 104 nM | Kd [14]: 1.22 nM | Kd [7]: 1.09 nM | fold improvement in affinity (KD) vs AL2p [19]: ~10 fold | Kd [16]: 14.8 nM | Kd [8]: 16.3 nM | BW Luc assay plate bound 7.3 nM IgG, FOC [17]: 3.54 FOC | BW Luc assay soluble 7.3 nM IgG, FOC [17]: 3.48 FOC
B7: AL2p-47 (antibody, V domains shown)
VH: B2 VH with S32D, Q62R, Q65H, Q103K
VL: B2 VL with S25T, G34A, F60V
notes: Fab and IgG formats under one id (explicit huIgG1 is m97); also called AL2-47
DC viability (AUC) [18]: 771000 AUC | Mac viability (AUC) [18]: 22100 AUC

Kd [6]: 2.63 nM | Kd [16]: 21.1 nM | Kd [8]: 19.4 nM | luciferase activation, soluble IgG, EC50 [9]: 25.1 nM
B9: AL2p-62 (antibody, V domains shown)
VH: B2 VH with S16A, S32Q, G44R, M48I, Q62G, E74T, T76A
VL: B5 VL with R34Q, K79T, R82S, V83L, E84Q, G89A, Q105G, L109V
notes: as for B4

Reference: US20200317776A1 (published 2020)
